In test [1] the target is T1, human cannabinoid receptor 1 (huCB1), full length, expressed on cells (human, UniProt P21554 1-472). Put plainly: cell-based or functional assay.
The target in the next test is T2, huCB1 nanodisc (CB1-ND) (human, UniProt P21554 99-414).
T2 construct: The His-tagged CB1 is embedded in a POPC lipid nanodisc with MSP1D1 scaffold protein (molar ratio 480:8:1); also called huCB1-ND; #CB1-008
Put plainly: Octet BLI; antibody captured by anti-human Fc, CB1-nanodisc in solution, 1:1 model. (In general: Biolayer interferometry detects binding as a change in optical thickness at a sensor tip.)

Test [2] has as its target T1, human cannabinoid receptor 1 (huCB1), …. Put plainly: KinExA on-cell ranking, HEK 293T cells expressing full length CB1; %IFF of LIBC523661 divided by %IFF of antibody.
Test [3] shares this target. Description: cell-based or functional assay. The source holds these as a separate data set.
For test [4] the target is unchanged. Put plainly: cell-based or functional assay. The source holds these as a separate data set.
Test [5] shares this target. Description: cell-based or functional assay. The source holds these as a separate data set.
For test [6] the target is unchanged. Description: cell-based or functional assay. This is another data set of the same source.
For test [7] the target is unchanged. Description: cell-based or functional assay. The source holds these as a separate data set.
Test [8] concerns the target T3, mouse CB1 (mouse, UniProt P47746 1-473).
T3 construct: also called muCB1; murine CB1
Put plainly: FACS on transfected HEK293T cells.

The target in test [9] is T4, human cannabinoid receptor type 2 (CB2) (human, UniProt P34972 1-360).
T4 construct: also called huCB2; full length hu CB2
Put plainly: FACS on transfected HEK293T cells.

Test [10] deals with T1, human cannabinoid receptor 1 (huCB1), …. Description: cell-based or functional assay. This is another data set of the same source.
Test [11] has the same target. Description: KinExA on-cell ranking, HEK 293T cells expressing full length CB1; reference antibody of the ratio.
Test [12] deals with T5, His-tagged huCB1-ND (human CB1 in nanodisc) (human).
T5 construct: CB1 construct of Cell 167(3) (2016) 750-762 expressed in Sf9 cells; POPC:MSP1D1:CB1 480:8:1; also called CB1-nanodisc; huCB1-Nanodisc; not shown: histidine purification tag
Put plainly: flow cytometry, yeast-displayed IgG, binding/display ratio. (Flow cytometry measures light scatter and fluorescence of single cells or particles in a stream.)

For test [13], the target named is T5, His-tagged huCB1-ND (human CB1 in …). Put plainly: flow cytometry, yeast-displayed IgG, huCB1-ND over empty-ND.
In test [14] the target is T3, mouse CB1. Description: binding to muCB1, fold over mock (method not described).
Test [15] addresses T6, full length human CB1 expressed on cells (human, UniProt P21554 1-472).
T6 construct: also called huCB1; full length hu CB1
Description: KinExA, on HEK 293T cells expressing full length CB1. For orientation: A kinetic exclusion assay measures how much of one partner remains free in solution.

Test [16] has as its target T3, mouse CB1. Put plainly: fold over mock (Table 14).
The target in test [17] is T4, human cannabinoid receptor type 2 (CB2). Put plainly: fold over mock (Table 14).
The target in test [18] is T7, GFP-fused huCB1-SMALP (human CB1 in styrene maleic acid lipoparticles) (human, UniProt P21554 1-472).
T7 construct: Prepared as in Luna V. et al. 2018; also called huCB1-GFP-SMALP; wtCB1-SMALP; not shown: GFP fusion
Description: flow cytometry, yeast-displayed IgG, GFP MFI.

The target of test [19] is T4, human cannabinoid receptor type 2 (CB2). Description: binding to huCB2, fold over mock (method not described).

T1 sequence (P21554 whole entry): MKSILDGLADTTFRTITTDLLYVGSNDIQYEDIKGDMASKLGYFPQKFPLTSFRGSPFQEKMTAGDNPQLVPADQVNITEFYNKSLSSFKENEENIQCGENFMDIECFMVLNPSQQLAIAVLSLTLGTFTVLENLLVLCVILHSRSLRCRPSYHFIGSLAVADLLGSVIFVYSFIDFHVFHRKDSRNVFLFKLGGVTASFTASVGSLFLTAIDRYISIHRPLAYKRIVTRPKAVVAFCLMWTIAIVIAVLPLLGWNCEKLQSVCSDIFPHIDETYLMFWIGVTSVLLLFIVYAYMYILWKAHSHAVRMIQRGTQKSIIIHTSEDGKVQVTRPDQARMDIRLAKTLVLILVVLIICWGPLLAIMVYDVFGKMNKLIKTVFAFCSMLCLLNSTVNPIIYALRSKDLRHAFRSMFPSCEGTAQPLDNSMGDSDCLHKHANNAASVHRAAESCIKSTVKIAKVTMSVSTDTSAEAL
T2 sequence (P21554 99-414 limits assumed): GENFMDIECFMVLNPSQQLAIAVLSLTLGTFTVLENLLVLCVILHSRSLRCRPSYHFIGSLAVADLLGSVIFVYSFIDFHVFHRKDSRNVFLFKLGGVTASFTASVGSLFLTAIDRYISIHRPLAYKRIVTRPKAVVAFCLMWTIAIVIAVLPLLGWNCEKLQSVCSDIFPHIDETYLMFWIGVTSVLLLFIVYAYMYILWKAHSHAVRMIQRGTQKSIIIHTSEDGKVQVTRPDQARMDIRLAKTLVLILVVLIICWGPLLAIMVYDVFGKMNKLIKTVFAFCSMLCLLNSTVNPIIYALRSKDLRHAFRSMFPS
T3 sequence (P47746 whole entry): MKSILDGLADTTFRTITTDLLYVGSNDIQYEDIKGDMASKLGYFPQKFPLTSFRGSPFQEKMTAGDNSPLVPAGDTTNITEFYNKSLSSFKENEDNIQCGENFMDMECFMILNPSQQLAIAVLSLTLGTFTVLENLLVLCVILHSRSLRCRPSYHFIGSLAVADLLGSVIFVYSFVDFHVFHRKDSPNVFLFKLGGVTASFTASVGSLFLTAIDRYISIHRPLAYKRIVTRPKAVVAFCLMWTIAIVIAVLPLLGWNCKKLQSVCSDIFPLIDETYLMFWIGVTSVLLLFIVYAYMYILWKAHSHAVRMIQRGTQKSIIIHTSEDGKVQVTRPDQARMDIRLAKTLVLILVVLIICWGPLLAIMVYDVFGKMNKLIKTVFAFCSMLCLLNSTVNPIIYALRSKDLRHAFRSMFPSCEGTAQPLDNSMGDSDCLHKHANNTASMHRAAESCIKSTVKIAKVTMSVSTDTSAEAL
T4 sequence (P34972 whole entry): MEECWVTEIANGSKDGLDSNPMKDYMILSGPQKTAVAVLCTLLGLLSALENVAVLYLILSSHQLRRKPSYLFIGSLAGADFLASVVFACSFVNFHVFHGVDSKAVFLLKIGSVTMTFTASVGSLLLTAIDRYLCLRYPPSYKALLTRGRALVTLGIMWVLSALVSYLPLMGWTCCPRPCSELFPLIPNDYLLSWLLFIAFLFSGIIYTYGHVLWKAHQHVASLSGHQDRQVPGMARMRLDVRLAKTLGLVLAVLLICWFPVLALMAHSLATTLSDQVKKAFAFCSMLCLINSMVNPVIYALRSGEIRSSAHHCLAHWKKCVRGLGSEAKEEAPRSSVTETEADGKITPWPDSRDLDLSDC
T5 sequence (P21554 99-414): as the sequence (P21554 99-414 limits assumed) above
T6 sequence (P21554 whole entry): as the sequence (P21554 whole entry) above
T7 sequence (P21554 whole entry, the tested form may be a part): as the sequence (P21554 whole entry) above

B1: LIBC527814-1 (antibody, V domains shown)
VH: QVQLQESGPGLVKPSQTLSLTCTVSGGSIRRGGDYWGWIRQHPGKGLEWIGHVYQTGSTKYNPSFKDRATISVNTYKNQFSLKLSSVTAADTAVYYCARNYDTLTGYSYYYYGMDVWGQGTTVTVSS
VL: DIQMTQSPSTLSASVGDRVTITCRASQSISNYLNWYQQKPGKAPKLLIYAASSLHSGVPSRFSGSGSGTDFTLTISSLQPEDFASYYCQQYQSYPLTFGQGTKVEIKR
notes: Expressed as IgG1 SEFL2 mAb
Regarding B1, the “IC50 (nM), antagonist assay” value in test [1] came to 3.8 nM. Also, in the test with huCB1 nanodisc (CB1-ND), the Kd (commonly a measure of binding affinity in units of concentration) came to 35 nM; the off-rate constant (koff) (in general, the first-order rate constant of dissociation) is 0.00198 s⁻¹; the kon – broadly, a measure of how fast the partners come together – is 56600 M⁻¹ s⁻¹. Also, the “Relative binding (KinExA, on cell; vs LIBC523661 mAb)” value in [2] stood at 1.9 ratio. Also, in test [3], the “IC50, nM (CP agonist)” value turned out to be 2.1 nM. For the same molecule, the “Mean IC50 (nM, n = 3), cAMP antagonist assay” value in [4] came to 2.07 nM. Besides, in test [5], the “Mean IC50 (nM), cAMP antagonist assay” value is 2.97 nM; the “Mean IC50, -fold vs Rimo” value came to 0.99 fold vs Rimonabant; the “n = 1 IC50 (nM), cAMP antagonist assay” value is 4.72 nM; the “n = 1 IC50, -fold vs Rimo” value came out at 1.12 fold vs Rimonabant. In test [5], the “n = 2 IC50 (nM), cAMP antagonist assay” value came out at 1.22 nM and the “n = 2 IC50, -fold vs Rimo” value was determined as 0.68 fold vs Rimonabant.

B2: LIBC528116-1 (antibody, V domains shown)
VH: QVQLQESGPGLVKPSQTLSLTCTVSGGSIRRGGDYWAWIRQHPGKGLEWIGHVYYTGSTNYNPRFKDRATISVNTYKNQFSLKLSSVTAADTAVYYCARNYDTVTGYSYYYYGMDVWGQGTTVTVSS
VL: DIQLTQSPSTLSASVGDRVTITCRASQSISNYLNWYQQKPGKAPKLLIYAASSLHSGVPSRFSGSGSGTDFTLTISSLQPEDFASYYCQQYQSYPLTFGQGTKVEIKR
notes: Expressed as IgG1 SEFL2 mAb; also called 37940-4
As to B2, in [6], the IC50 (usually the concentration that inhibits the measured activity by half) turned out to be 2.7 nM. This molecule also registered a Kd with huCB1 nanodisc (CB1-ND) of 29 nM. Moreover, the “IC50, nM (CP agonist)” value in test [3] was found to be 1.8 nM. Also, in [7], the “Antagonist assay IC50 (nM), 2-AG” value turned out to be 7.2 nM; the “Antagonist assay IC50 (nM), Anandamide” value worked out at 17 nM; the “Antagonist assay IC50 (nM), CP 55,940” value was determined as 1.8 nM; the “Inverse agonist assay IC50” value was 31.7 nM. The “Mean IC50 (nM, n = 3), cAMP antagonist assay” value in test [4] was determined as 1.77 nM. Besides, in test [5], the “Mean IC50 (nM), cAMP antagonist assay” value was found to be 2.4 nM; the “n = 1 IC50 (nM), cAMP antagonist assay” value is 3.93 nM; the “n = 2 IC50 (nM), cAMP antagonist assay” value came to 0.88 nM.

B3: LIBC560340-1 (antibody, V domains shown)
VH: QVQLQESGPGLVKPSQTLSLICIVSGGSIRRGGDYWNWIRQHPGKGLEWIGHIYYSGSKNYNPSLKSRVTISVDTSKNQFSLKLSSVTAADTAVYYCARGYDSSGYSYYYYGMDVWGQGTTVTVSS
VL: DIVMTQSPLSLPVTPGEPASISCRSSQSLLYSNGHNFLDWYLQKPGQSPQLLIYLGSNRASGVPDRFSGSGSGTDFTLKISRVEAEDVGVYYCMQALQTPRTFGGGTKVEIKR
In the case of B3, the binding result (with mouse CB1 [8]; in test [9]) was “no binding” each time.

B4: LIBC560657-1 (antibody, V domains shown)
VH: QVQLRESGPGLVKPSQTLSLICIVSGGSIRRGGDYWNWIRQHPGKGLEWIGHIYYTGTKYYNPSLKSRVTISVDTSKNQFSLKLSSVTAADTAVYYCARGYDSSGYSYYYYGMDVWGQGTTVTVSS
VL: DIVMTQSPLSLPVTPGEPASISCRSSQSLLYSNGHNYLDWYLQKPGQSPQLLIYLGSNRAPGVPDRFSGSGSGTDFTLKISRVEAEDVGVYFCMQALQTPRTFGGGTKVEIKR
As for B4, the binding result (in the test with mouse CB1 [8]; in test [9]) was “no binding” throughout.

B5: 10D10 (antibody, V domains shown)
VH: QVQLQESGPGLVKPSQTLSLTCTVSGGSIRRGGDYWSWIRQHPGKGLEWIGYIYYSGSTNYNPSLKSRATISVDTSKNQFSLKLSSVTAADTAVYYCARDYDILTGYSYYYYGMDVWGQGTTVTVSS
VL: not shown
notes: Parent antibody from XenoMouse; also called 10D10 antibody
For the molecule B5, the “IC50 (nM), antagonist assay” value in test [1] was determined as 144 nM. Further, the dissociation constant (Kd) with huCB1 nanodisc (CB1-ND) was determined as 755 nM. For the same molecule, in test [3], the “IC50, nM (CP agonist)” value is 121 nM. Moreover, in [7], the “Antagonist assay IC50 (nM), 2-AG” value came to 178 nM; the “Antagonist assay IC50 (nM), Anandamide” value was found to be 6040 nM; the “Antagonist assay IC50 (nM), CP 55,940” value was 120 nM; the “Inverse agonist assay IC50” value was 295 nM. Further, in test [10], the “IC50, nM (TR-FRET cAMP assay, CP55,940 and Forskolin)” value came out at 120 nM. Moreover, the “Mean IC50 (nM, n = 3), cAMP antagonist assay” value in [4] stood at 120 nM. In test [5], the “Mean IC50 (nM), cAMP antagonist assay” value was 80.8 nM; the “n = 1 IC50 (nM), cAMP antagonist assay” value worked out at 118 nM; the “n = 2 IC50 (nM), cAMP antagonist assay” value came out at 43.4 nM.

B6: LIBC523661-1 (antibody, V domains shown)
VH: QVQLQESGPGLVKPSQTLSLTCTVSGGSIRRGGDYWSWIRQHPGKGLEWIGHIYYEGSTKYNPSFKGRATISVNTYKNQFSLKLSSVTAADTAVYYCARDYDPVTGHSYYYYGMDVWGQGTTVTVSS
VL: DIVMTQSPLSLPVTPGEPASISCRSSQSLLTSSGYNYVDWYLQKPGQSPQLLIYQGSNRASGVPDRFSGSGSGTDFTLKISRVEAEDVGVYYCRQARAIPRTFGQGTKVEIKR
notes: Expressed as IgG1 SEFL2 mAb
With B6, in the test with huCB1 nanodisc (CB1-ND), the dissociation constant Kd came to 77 nM, the dissociation rate constant (koff) was 0.00275 s⁻¹ and the kon was determined as 35700 M⁻¹ s⁻¹. Besides, in [3], the “IC50, nM (CP agonist)” value was 3.9 nM. Further, the “Relative binding (KinExA, on cell; vs LIBC523661 mAb)” value in [11] was determined as 1 ratio. The “Mean IC50 (nM, n = 3), cAMP antagonist assay” value in test [4] came to 3.88 nM. For the same molecule, in test [5], the “Mean IC50 (nM), cAMP antagonist assay” value was determined as 3.3 nM; the “Mean IC50, -fold vs Rimo” value was 1.1 fold vs Rimonabant; the “n = 1 IC50 (nM), cAMP antagonist assay” value was found to be 5.24 nM; the “n = 1 IC50, -fold vs Rimo” value is 1.24 fold vs Rimonabant. For the same molecule, in [5], the “n = 2 IC50 (nM), cAMP antagonist assay” value was 1.35 nM and the “n = 2 IC50, -fold vs Rimo” value was 0.75 fold vs Rimonabant.

B7: LIBC529593-1 (antibody, V domains shown)
VH: QVQLQESGPGLVKPSQTLSLTCTVSGGSIRRGGDYWSWIRQHPGKGLEWIGHIYYSGSTNYNPSLRSRVRISVDTSKNQFSLKLSSVTAADTAVYYCARDYDILTGYSYYYYGLDVWGQGTTVTVSS
VL: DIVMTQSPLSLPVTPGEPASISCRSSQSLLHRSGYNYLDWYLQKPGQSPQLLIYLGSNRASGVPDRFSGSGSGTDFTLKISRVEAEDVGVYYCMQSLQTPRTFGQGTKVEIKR
With B7, the binding result (with mouse CB1 [8]; in test [9]) was “no binding” throughout.

B8: LIBC523661-1 (antibody, IgG1, V domains shown)
VH: QVQLQESGPGLVKPSQTLSLTCTVSGGSIRRGGDYWSWIRQHPGKGLEWIGHIYYEGSTKYNPSFKGRATISVNTYKNQFSLKLSSVTAADTAVYYCARDYDPVTGHSYYYYGMDVWGQGTTVTVSS
VL: DIVMTQSPLSLPVTPGEPASISCRSSQSLLTSSGYNYVDWYLQKPGQSPQLLIYQGSNRASGVPDRFSGSGSGTDFTLKISRVEAEDVGVYYCRQARAIPRTFGQGTKVEIKR
For B8, the “relative binding to 0.2 nM huCB1-ND (relative to 10D10N35Y)” value in [12] stood at 4.03 fold. Besides, in test [13], the “specific huCB1 binding (CB1 ND/Empty ND ratio)” value was 9.32 ratio. In addition, the Fold over mock stood at 0.7 fold in the test with mouse CB1 [14] and 0.8 fold in test [19]. Also, in [15], the Kd came to 0.064 nM. In addition, the binding result (in the test with mouse CB1 [16]; in [17]) was “no binding” each time. Moreover, the “100 nM huCB1-SMALP binding (normalized to 10D10)” value in [18] was determined as 8 fold.

The record behind these values is US20250277029A1 (Amgen, published 2025).
